Test results: PMC8358037 (Communications Biology, 2021)

B1: anti-CROP gastrobody G9 (His6-Thrombin site-SpyTag003-gastrobody) (designed binder)
chain: DFVLDNEGNPLENGGTYYILSHPDLFGGIRAAPTGNERCPLTVVQSLYLFDKGIGTIISSPYRIRFIAEGHPLSLKFDSFAVIMLCVGIPTEWSVVEDLPEGPAVKIGENKDAMDGWFRLERVSDDEFNNYKLVFCPQQAEDDKCGDIGISIDHDDGTRRLVVSKNKPLVVQFQKLDKESL
B2: anti-CROP gastrobody T42 (His6-Thrombin site-SpyTag003-gastrobody) (designed binder)
chain: DFVLDNEGNPLENGGTYYILSVPHQFGGIRAAPTGNERCPLTVVQSRNKWDKGIGTIISSPYRIRFIAEGHPLSLKFDSFAVIMLCVGIPTEWSVVEDLPEGPAVKIGENKDAMDGWFRLERVSDDEFNNYKLVFCPQQAEDDKCGDIGISIDHDDGTRRLVVSKNKPLVVQFQKLDKESL
B3: anti-CROP gastrobody G22 (His6-Thrombin site-SpyTag003-gastrobody) (designed binder)
chain: DFVLDNEGNPLENGGTYYILSLQNRFGGIRAAPTGNERCPLTVVQSHDFMDKGIGTIISSPYRIRFIAEGHPLSLKFDSFAVIMLCVGIPTEWSVVEDLPEGPAVKIGENKDAMDGWFRLERVSDDEFNNYKLVFCPQQAEDDKCGDIGISIDHDDGTRRLVVSKNKPLVVQFQKLDKESL

Each binder was assayed against combined repetitive oligopeptide domain of C. difficile toxin A (AviTag-His6-CROP) (Clostridium difficile, UniProt P16154 2304-2710) (assay: SPR). Conditions: both partners purified.

How did the Kd turn out when B1 was run?
Its Kd is 4.1 µM.

With B2 as the binder, how does the Kd read?
Its Kd is 6.2 µM.

For B3, which Kd is on record?
Its Kd is roughly 50 µM.
